Laboratory results: PMC6555819, “Comprehensive study of nuclear receptor DNA binding provides a revised framework for understanding receptor specificity”

B1: NRC3_random_hg19_16_o1 (dsDNA)
DNA 1: GCGTTGTATCGTGTTATGTATGAGAGTCAGGATCTTGCGATTGACAGCGTAGAATGAAGG
DNA 2: CCTTCATTCTACGCTGTCAATCGCAAGATCCTGACTCTCATACATAACACGATACAACGC
B2: NRC3_wobSeed133_DR5_T19A_o1 (dsDNA)
DNA 1: GCCGTCCAAGGTCAATGCAAGGTCAGTGAAAGCATTGCGATTGACAGCGTAGAATGAAGG
DNA 2: CCTTCATTCTACGCTGTCAATCGCAATGCTTTCACTGACCTTGCATTGACCTTGGACGGC
B3: NRC3_random_hg19_397_o1 (dsDNA)
DNA 1: GCGGTGTCGTGTGCCTGTGATCCCAGCTACGCAGGCGCGATTGACAGCGTAGAATGAAGG
DNA 2: CCTTCATTCTACGCTGTCAATCGCGCCTGCGTAGCTGGGATCACAGGCACACGACACCGC
B4: NRC3_wobSeed97_DR4_A6C_o1 (dsDNA)
DNA 1: GCCAACCTAGGTCACGAAAGGTCAAAGTCGAATGACGCGATTGACAGCGTAGAATGAAGG
DNA 2: CCTTCATTCTACGCTGTCAATCGCGTCATTCGACTTTGACCTTTCGTGACCTAGGTTGGC
B5: NRC3_wobSeed120_DR4_G20A_o1 (dsDNA)
DNA 1: GCCCGAGTAGGTTACGAGGAGGCATTCAGTGCGAATGCGATTGACAGCGTAGAATGAAGG
DNA 2: CCTTCATTCTACGCTGTCAATCGCATTCGCACTGAATGCCTCCTCGTAACCTACTCGGGC
B6: NRC3_random_hg19_10_o1 (dsDNA)
DNA 1: GCAGCCTCCTGTTGGGTGGTCTGGTCCACCTCCTCAGCGATTGACAGCGTAGAATGAAGG
DNA 2: CCTTCATTCTACGCTGTCAATCGCTGAGGAGGTGGACCAGACCACCCAACAGGAGGCTGC
B7: NRC3_random_hg19_406_o1 (dsDNA)
DNA 1: GCGAAGAACCTCCAAACTGTTCTCCATGGTAGTTGTGCGATTGACAGCGTAGAATGAAGG
DNA 2: CCTTCATTCTACGCTGTCAATCGCACAACTACCATGGAGAACAGTTTGGAGGTTCTTCGC
B8: NRC3_random_hg19_173_o1 (dsDNA)
DNA 1: GCATCCACCACCATGCAGAGGCAAGAATGGTCAGGCGCGATTGACAGCGTAGAATGAAGG
DNA 2: CCTTCATTCTACGCTGTCAATCGCGCCTGACCATTCTTGCCTCTGCATGGTGGTGGATGC
B9: NRC3_random_hg19_423_o1 (dsDNA)
DNA 1: GCATCAAGTGATCCTCCCACCTCAGCCTTCCAAGTCGCGATTGACAGCGTAGAATGAAGG
DNA 2: CCTTCATTCTACGCTGTCAATCGCGACTTGGAAGGCTGAGGTGGGAGGATCACTTGATGC
B10: NRC3_random_hg19_222_o1 (dsDNA)
DNA 1: GCGAAGCATTCTAAGAAACTTCTTCGTGATGTGTGTGCGATTGACAGCGTAGAATGAAGG
DNA 2: CCTTCATTCTACGCTGTCAATCGCACACACATCACGAAGAAGTTTCTTAGAATGCTTCGC
B11: NRC3_wobSeed18_DR0_C13G_o1 (dsDNA)
DNA 1: GCGATACAGGGTGAAGGCCAGAGTACGCGTATTGATGCGATTGACAGCGTAGAATGAAGG
DNA 2: CCTTCATTCTACGCTGTCAATCGCATCAATACGCGTACTCTGGCCTTCACCCTGTATCGC
B12: NRC3_random_hg19_285_o1 (dsDNA)
DNA 1: GCTTACTCTGTTGCACTTTGGAAGAAACAAATGTAAGCGATTGACAGCGTAGAATGAAGG
DNA 2: CCTTCATTCTACGCTGTCAATCGCTTACATTTGTTTCTTCCAAAGTGCAACAGAGTAAGC
B13: NRC3_wobSeed106_DR4_G14A_o1 (dsDNA)
DNA 1: GCCTCGAAAGGTCAGTTGAGGTGAGTATACGGATAAGCGATTGACAGCGTAGAATGAAGG
DNA 2: CCTTCATTCTACGCTGTCAATCGCTTATCCGTATACTCACCTCAACTGACCTTTCGAGGC
B14: NRC3_wobSeed25_DR1_C26A_o1 (dsDNA)
DNA 1: GCCAAACTAGGTCAAAGGTCAAAGTAGAGCCAACCAGCGATTGACAGCGTAGAATGAAGG
DNA 2: CCTTCATTCTACGCTGTCAATCGCTGGTTGGCTCTACTTTGACCTTTGACCTAGTTTGGC
B15: NRC3_random_hg19_228_o1 (dsDNA)
DNA 1: GCCACCGTGTTAGCCAGGATGGTCTCGATCTCCTGAGCGATTGACAGCGTAGAATGAAGG
DNA 2: CCTTCATTCTACGCTGTCAATCGCTCAGGAGATCGAGACCATCCTGGCTAACACGGTGGC
B16: NRC3_wobSeed101_DR4_C18A_o1 (dsDNA)
DNA 1: GCCCTTACGGGTCACTCAAGGTTATAGCATCGGAGTGCGATTGACAGCGTAGAATGAAGG
DNA 2: CCTTCATTCTACGCTGTCAATCGCACTCCGATGCTATAACCTTGAGTGACCCGTAAGGGC
B17: NRC3_random_hg19_121_o1 (dsDNA)
DNA 1: GCGCAGTAGGCACAGGGACTGTGTACAGATCTACACGCGATTGACAGCGTAGAATGAAGG
DNA 2: CCTTCATTCTACGCTGTCAATCGCGTGTAGATCTGTACACAGTCCCTGTGCCTACTGCGC
B18: NRC3_wobSeed141_DR5_T11G_o1 (dsDNA)
DNA 1: GCAGTCAAAGGTCAGGACGAGGTAACGTAAAGCACGGCGATTGACAGCGTAGAATGAAGG
DNA 2: CCTTCATTCTACGCTGTCAATCGCCGTGCTTTACGTTACCTCGTCCTGACCTTTGACTGC
B19: NRC3_wobSeed102_DR4_T18G_o1 (dsDNA)
DNA 1: GCCCTAGCAGGCCAATCGGGGTCACTCAAGGCTTGAGCGATTGACAGCGTAGAATGAAGG
DNA 2: CCTTCATTCTACGCTGTCAATCGCTCAAGCCTTGAGTGACCCCGATTGGCCTGCTAGGGC
B20: NRC3_random_hg19_74_o1 (dsDNA)
DNA 1: GCAGAACAGCTGAGTGGCTCAAGACCGCAGAGGAACGCGATTGACAGCGTAGAATGAAGG
DNA 2: CCTTCATTCTACGCTGTCAATCGCGTTCCTCTGCGGTCTTGAGCCACTCAGCTGTTCTGC
B21: NRC3_wobSeed37_DR1_T23G_o1 (dsDNA)
DNA 1: GCCGTCCAAGGTCAAAGGTCAGGGAAGAGATGACGGGCGATTGACAGCGTAGAATGAAGG
DNA 2: CCTTCATTCTACGCTGTCAATCGCCCGTCATCTCTTCCCTGACCTTTGACCTTGGACGGC
B22: NRC3_wobSeed13_DR0_G21C_o1 (dsDNA)
DNA 1: GCCGTCCAAGGTCAAGGTCACTGAAAGAGACTCGAAGCGATTGACAGCGTAGAATGAAGG
DNA 2: CCTTCATTCTACGCTGTCAATCGCTTCGAGTCTCTTTCAGTGACCTTGACCTTGGACGGC
B23: NRC3_random_hg19_113_o1 (dsDNA)
DNA 1: GCGAGATTCCAGATGAGAACTGCTCAGCCAAACTCTGCGATTGACAGCGTAGAATGAAGG
DNA 2: CCTTCATTCTACGCTGTCAATCGCAGAGTTTGGCTGAGCAGTTCTCATCTGGAATCTCGC

Tests used:
LXRb:RXRa = LXRb:RXRa (Homo sapiens, UniProt P55055;P19793 full;full); assay: no ligand; PBM; 270 nM : 90 nM RXRa; PBS pH 7.4, 2% milk, 0.02% Triton X-100, 1 mM DTT, BSA, 0.4 mg/ml salmon testes DNA; conditions: tags: His kept;His cleaved; copies: 1;1; label: surface-attached array probe
Summary of the method: (§1)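 Ligand-free nuclear receptor dimers were bound for 1 h to custom Agilent 4×180K protein-binding microarrays. Detection used antibodies against each partner (one per run). Binding z-scores rest on regression-normalized fluorescence, with random background probes as the reference.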

THRa:RXRa = THRa:RXRa (Homo sapiens, UniProt P10827;P19793 full;full); assay: no ligand; PBM; 90 nM : 90 nM RXRa; PBS pH 7.4, 2% milk, 0.02% Triton X-100, 1 mM DTT, BSA, 0.4 mg/ml salmon testes DNA; conditions: tags: His kept;His cleaved; copies: 1;1; label: surface-attached array probe
RARg:RXRa = RARg:RXRa (Homo sapiens, UniProt P13631;P19793 full;full); assay: no ligand; PBM; 270 nM : 90 nM RXRa; PBS pH 7.4, 2% milk, 0.02% Triton X-100, 1 mM DTT, BSA, 0.4 mg/ml salmon testes DNA; conditions: tags: His kept;His cleaved; copies: 1;1; label: surface-attached array probe
Summary of the method: as §1

RARb:RXRa = RARb:RXRa (Homo sapiens, UniProt P10826;P19793 full;full); assay: as above; conditions: tags: His kept;His cleaved; copies: 1;1; label: surface-attached array probe
Summary of the method: as §1

VDR:RXRa = VDR:RXRa (Homo sapiens, UniProt P11473;P19793 full;full); assay: as above; conditions: tags: His kept;His cleaved; copies: 1;1; label: surface-attached array probe
Summary of the method: as §1

RXRa = RXRa (Homo sapiens, UniProt P19793); assay: no ligand; PBM; 180 nM; PBS pH 7.4, 2% milk, 0.02% Triton X-100, 1 mM DTT, BSA, 0.4 mg/ml salmon testes DNA; conditions: tags: His cleaved; chain copies: 2; label: surface-attached array probe
FXR:RXRa = FXR:RXRa (Homo sapiens, UniProt Q96RI1;P19793 full;full); assay: no ligand; PBM; 270 nM : 90 nM RXRa; PBS pH 7.4, 2% milk, 0.02% Triton X-100, 1 mM DTT, BSA, 0.4 mg/ml salmon testes DNA; conditions: tags: His kept;His cleaved; copies: 1;1; label: surface-attached array probe
Summary of the method: as §1

PPARa:RXRa = PPARa:RXRa (Homo sapiens, UniProt Q07869;P19793 full;full); assay: as above; conditions: tags: GST kept;His cleaved; copies: 1;1; label: surface-attached array probe
Summary of the method: as §1

Chain of RARg:RXRa (P13631 whole entry, chain 1 of 2): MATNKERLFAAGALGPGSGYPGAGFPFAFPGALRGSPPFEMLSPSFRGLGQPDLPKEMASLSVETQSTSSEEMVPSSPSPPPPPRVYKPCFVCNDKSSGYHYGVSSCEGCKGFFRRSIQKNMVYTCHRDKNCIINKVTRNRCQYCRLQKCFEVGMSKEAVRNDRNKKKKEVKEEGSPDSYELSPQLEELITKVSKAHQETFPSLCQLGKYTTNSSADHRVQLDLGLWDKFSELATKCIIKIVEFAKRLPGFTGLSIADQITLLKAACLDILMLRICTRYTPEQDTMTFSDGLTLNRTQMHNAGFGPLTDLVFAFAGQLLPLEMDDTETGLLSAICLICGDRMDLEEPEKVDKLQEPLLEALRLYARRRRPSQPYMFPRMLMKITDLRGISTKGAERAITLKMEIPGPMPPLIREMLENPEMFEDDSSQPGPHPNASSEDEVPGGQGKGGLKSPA
Chain of RARg:RXRa (P19793 whole entry, chain 2 of 2): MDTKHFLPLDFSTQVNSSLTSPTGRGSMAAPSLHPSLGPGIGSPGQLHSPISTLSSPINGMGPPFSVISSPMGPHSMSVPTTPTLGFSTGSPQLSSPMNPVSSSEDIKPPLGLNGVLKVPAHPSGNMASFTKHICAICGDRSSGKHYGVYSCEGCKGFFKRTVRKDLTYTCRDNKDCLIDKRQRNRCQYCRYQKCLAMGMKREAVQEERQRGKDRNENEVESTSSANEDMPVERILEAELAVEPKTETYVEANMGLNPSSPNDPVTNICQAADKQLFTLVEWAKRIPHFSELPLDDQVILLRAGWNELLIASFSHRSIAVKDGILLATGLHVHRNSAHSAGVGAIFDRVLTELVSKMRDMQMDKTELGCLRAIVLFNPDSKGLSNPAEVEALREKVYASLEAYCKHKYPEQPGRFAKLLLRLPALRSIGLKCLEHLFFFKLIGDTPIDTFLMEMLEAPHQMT
Chain of RARb:RXRa (P10826 whole entry, chain 1 of 2): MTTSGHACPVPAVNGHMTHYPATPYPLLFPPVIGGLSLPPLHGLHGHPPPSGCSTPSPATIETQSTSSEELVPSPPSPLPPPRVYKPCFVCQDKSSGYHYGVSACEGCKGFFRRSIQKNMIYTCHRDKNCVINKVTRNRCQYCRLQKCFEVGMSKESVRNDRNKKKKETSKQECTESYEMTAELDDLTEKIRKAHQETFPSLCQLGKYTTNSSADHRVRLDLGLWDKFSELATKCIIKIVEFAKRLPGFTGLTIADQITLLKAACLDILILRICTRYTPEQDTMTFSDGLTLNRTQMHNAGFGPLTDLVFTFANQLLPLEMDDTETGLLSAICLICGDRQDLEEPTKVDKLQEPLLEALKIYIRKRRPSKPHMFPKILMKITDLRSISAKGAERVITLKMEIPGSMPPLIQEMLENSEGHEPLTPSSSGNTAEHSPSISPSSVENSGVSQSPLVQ
Chain of RARb:RXRa (P19793 whole entry, chain 2 of 2): as the sequence (P19793 whole entry, chain 2 of 2) above
Chain of FXR:RXRa (Q96RI1 whole entry, chain 1 of 2): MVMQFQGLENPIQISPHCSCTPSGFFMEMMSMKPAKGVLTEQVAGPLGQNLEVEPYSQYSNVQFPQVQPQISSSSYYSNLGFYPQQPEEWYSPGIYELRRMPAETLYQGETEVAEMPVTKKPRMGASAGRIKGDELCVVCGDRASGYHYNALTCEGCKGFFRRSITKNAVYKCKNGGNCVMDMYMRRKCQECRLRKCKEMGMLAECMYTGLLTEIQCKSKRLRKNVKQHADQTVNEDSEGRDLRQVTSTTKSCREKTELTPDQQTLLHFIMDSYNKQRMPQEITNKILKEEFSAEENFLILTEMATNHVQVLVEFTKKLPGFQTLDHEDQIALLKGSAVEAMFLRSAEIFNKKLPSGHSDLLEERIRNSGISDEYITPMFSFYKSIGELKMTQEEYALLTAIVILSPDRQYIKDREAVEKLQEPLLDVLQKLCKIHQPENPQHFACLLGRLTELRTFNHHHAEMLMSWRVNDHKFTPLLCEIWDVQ
Chain of FXR:RXRa (P19793 whole entry, chain 2 of 2): as the sequence (P19793 whole entry, chain 2 of 2) above
Chain of THRa:RXRa (P10827 other isoform, or with tags, fused parts or gaps, chain 1 of 2): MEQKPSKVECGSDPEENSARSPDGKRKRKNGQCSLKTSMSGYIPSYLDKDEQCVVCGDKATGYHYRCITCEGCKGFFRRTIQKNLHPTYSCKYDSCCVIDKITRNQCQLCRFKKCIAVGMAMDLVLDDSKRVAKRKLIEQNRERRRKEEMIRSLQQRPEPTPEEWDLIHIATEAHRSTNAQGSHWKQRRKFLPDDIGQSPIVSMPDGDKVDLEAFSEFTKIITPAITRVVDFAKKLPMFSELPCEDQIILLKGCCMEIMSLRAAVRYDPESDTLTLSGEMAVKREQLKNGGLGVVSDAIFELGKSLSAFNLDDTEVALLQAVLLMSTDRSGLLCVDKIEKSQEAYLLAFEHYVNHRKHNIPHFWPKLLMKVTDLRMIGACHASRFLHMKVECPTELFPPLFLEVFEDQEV
Chain of THRa:RXRa (P19793 whole entry, chain 2 of 2): as the sequence (P19793 whole entry, chain 2 of 2) above
Chain of PPARa:RXRa (Q07869 whole entry, chain 1 of 2): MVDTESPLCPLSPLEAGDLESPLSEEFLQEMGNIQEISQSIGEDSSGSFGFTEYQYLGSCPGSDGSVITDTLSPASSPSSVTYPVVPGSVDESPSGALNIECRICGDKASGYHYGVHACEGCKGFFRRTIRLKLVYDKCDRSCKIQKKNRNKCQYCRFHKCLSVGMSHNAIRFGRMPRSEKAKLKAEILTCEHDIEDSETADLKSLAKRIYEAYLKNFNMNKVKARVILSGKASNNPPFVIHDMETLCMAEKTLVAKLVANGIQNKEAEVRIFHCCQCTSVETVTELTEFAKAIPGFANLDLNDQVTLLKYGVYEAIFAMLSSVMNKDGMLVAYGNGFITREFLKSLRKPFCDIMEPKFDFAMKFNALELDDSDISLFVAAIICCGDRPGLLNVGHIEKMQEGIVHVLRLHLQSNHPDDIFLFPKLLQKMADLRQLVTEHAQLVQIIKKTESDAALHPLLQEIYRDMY
Chain of PPARa:RXRa (P19793 whole entry, chain 2 of 2): as the sequence (P19793 whole entry, chain 2 of 2) above
Chain of RXRa (P19793 whole entry): as the sequence (P19793 whole entry, chain 2 of 2) above
Chain of VDR:RXRa (P11473 whole entry, chain 1 of 2): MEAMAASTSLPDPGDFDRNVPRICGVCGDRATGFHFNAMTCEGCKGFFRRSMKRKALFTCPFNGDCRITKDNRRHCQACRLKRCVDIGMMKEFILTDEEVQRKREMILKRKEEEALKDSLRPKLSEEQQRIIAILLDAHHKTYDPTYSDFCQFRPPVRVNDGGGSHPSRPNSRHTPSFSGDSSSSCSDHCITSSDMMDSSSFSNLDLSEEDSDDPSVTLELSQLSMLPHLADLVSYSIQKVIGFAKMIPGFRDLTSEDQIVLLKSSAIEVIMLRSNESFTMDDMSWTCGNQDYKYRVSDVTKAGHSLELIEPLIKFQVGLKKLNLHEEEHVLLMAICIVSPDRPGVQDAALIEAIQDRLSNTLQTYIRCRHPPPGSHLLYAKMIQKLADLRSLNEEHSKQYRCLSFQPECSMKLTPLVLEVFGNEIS
Chain of VDR:RXRa (P19793 whole entry, chain 2 of 2): as the sequence (P19793 whole entry, chain 2 of 2) above
Chain of LXRb:RXRa (P55055 whole entry, chain 1 of 2): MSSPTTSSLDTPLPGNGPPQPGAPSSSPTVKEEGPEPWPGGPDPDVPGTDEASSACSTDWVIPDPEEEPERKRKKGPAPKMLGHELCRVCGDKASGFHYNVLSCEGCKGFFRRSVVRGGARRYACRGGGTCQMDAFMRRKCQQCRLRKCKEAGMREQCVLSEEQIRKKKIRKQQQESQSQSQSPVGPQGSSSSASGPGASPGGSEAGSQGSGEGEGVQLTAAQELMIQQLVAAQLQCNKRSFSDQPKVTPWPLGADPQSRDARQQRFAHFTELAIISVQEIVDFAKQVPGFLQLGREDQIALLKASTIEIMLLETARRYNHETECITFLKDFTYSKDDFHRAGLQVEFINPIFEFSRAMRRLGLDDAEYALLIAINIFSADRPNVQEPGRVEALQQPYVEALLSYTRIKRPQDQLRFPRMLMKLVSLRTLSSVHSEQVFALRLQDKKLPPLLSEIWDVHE
Chain of LXRb:RXRa (P19793 whole entry, chain 2 of 2): as the sequence (P19793 whole entry, chain 2 of 2) above

Binder	binding signal (THRa:RXRa)	binding signal (RARg:RXRa)	binding signal (RARb:RXRa)	further results
B1	0.16 PBM z-score against 500 random probes			binding signal (LXRb:RXRa): 0.41 PBM z-score against 500 random probes
B2	5 PBM z-score against 500 random probes	8.21 PBM z-score against 500 random probes	5.87 PBM z-score against 500 random probes	
B3	-0.32 PBM z-score against 500 random probes		0.07 PBM z-score against 500 random probes	binding signal (VDR:RXRa): -0.31 PBM z-score against 500 random probes; binding signal (RXRa): -0.17 PBM z-score against 500 random probes
B4	5.6 PBM z-score against 500 random probes		6.29 PBM z-score against 500 random probes	
B5	0.17 PBM z-score against 500 random probes			binding signal (VDR:RXRa): 0.09 PBM z-score against 500 random probes
B6	-1.74 PBM z-score against 500 random probes	-1.37 PBM z-score against 500 random probes	-0.72 PBM z-score against 500 random probes	binding signal (FXR:RXRa): -0.8 PBM z-score against 500 random probes; binding signal (RXRa): -1.64 PBM z-score against 500 random probes
B7	-0.25 PBM z-score against 500 random probes	-0.45 PBM z-score against 500 random probes		binding signal (FXR:RXRa): -0.19 PBM z-score against 500 random probes; binding signal (RXRa): -0.04 PBM z-score against 500 random probes
B8	0.01 PBM z-score against 500 random probes			binding signal (RXRa): 0.16 PBM z-score against 500 random probes
B9	0.07 PBM z-score against 500 random probes		0.02 PBM z-score against 500 random probes	
B10	-0.74 PBM z-score against 500 random probes	-0.49 PBM z-score against 500 random probes	-1.15 PBM z-score against 500 random probes	
B11	0.38 PBM z-score against 500 random probes	0.44 PBM z-score against 500 random probes		
B12	0.3 PBM z-score against 500 random probes		0.15 PBM z-score against 500 random probes	
B13	5.33 PBM z-score against 500 random probes		5.79 PBM z-score against 500 random probes	
B14	5.12 PBM z-score against 500 random probes		6.19 PBM z-score against 500 random probes	
B15	-1.6 PBM z-score against 500 random probes			binding signal (FXR:RXRa): -0.45 PBM z-score against 500 random probes
B16	5.41 PBM z-score against 500 random probes			binding signal (LXRb:RXRa): 6.18 PBM z-score against 500 random probes
B17	-2.89 PBM z-score against 500 random probes		-1.18 PBM z-score against 500 random probes	
B18	4.79 PBM z-score against 500 random probes	7.48 PBM z-score against 500 random probes	5.96 PBM z-score against 500 random probes	
B19	4.94 PBM z-score against 500 random probes		3.05 PBM z-score against 500 random probes	
B20	-0.75 PBM z-score against 500 random probes		-1.89 PBM z-score against 500 random probes	
B21	5.23 PBM z-score against 500 random probes		6.26 PBM z-score against 500 random probes	binding signal (PPARa:RXRa): 7.45 PBM z-score against 500 random probes
B22	4.85 PBM z-score against 500 random probes	7.34 PBM z-score against 500 random probes	5.97 PBM z-score against 500 random probes	binding signal (PPARa:RXRa): 6.7 PBM z-score against 500 random probes; binding signal (RXRa): 7.81 PBM z-score against 500 random probes
B23	-0.47 PBM z-score against 500 random probes		-0.57 PBM z-score against 500 random probes	binding signal (PPARa:RXRa): -0.69 PBM z-score against 500 random probes
